How the values were obtained:
[1] = biological target: full-length wild-type gephyrin (Geph^WT) (human) (UniProt Q9NQX3); experiment: SEC; analytical SEC (Superdex 6 increase or Superose 6 increase 10/300 GL) in grid buffer (25 mM Tris pH 7.5, 250 mM NaCl, 25 mM Arg/Glu, 5 mM β-mercaptoethanol, 1.5% sucrose); Geph^WT with a 3-fold excess of GlyR-loop; no filaments seen in SEC
[2] = biological target: the molecule itself; experiment: cell-based or functional assay

Molecule	stoichiometry N [1]	sedimentation assay of in vitro phase separation (LLPS) with GlyR-LD: GephE in the pellet fraction against the sample without GlyR-LD [2] [fold]
full-length wild-type gephyrin (Geph^WT) (from UniProt Q9NQX3 1-736) (natural protein)	3	
isolated gephyrin E-domain, wild type (GephE^WT, residues 327–736) (domain or fragment, human, UniProt Q9NQX3 327-736, looked up) DKAFITVLEMTPVLGTEIINYRDGMGRVLAQDVYAKDNLPPFPASVKDGYAVRAADGPGDRFIIGESQAGEQPTQTVMPGQVMRVTTGAPIPCGADAVVQVEDTELIRESDDGTEELEVRILVQARPGQDIRPIGHDIKRGECVLAKGTHMGPSEIGLLATVGVTEVEVNKFPVVAVMSTGNELLNPEDDLLPGKIRDSNRSTLLATIQEHGYPTINLGIVGDNPDDLLNALNEGISRADVIITSGGVSMGEKDYLKQVLDIDLHAQIHFGRVFMKPGLPTTFATLDIDGVRKIIFALPGNPVSAVVTCNLFVVPALRKMQGILDPRPTIIKARLSCDVKLDPRPEYHRCILTWHHQEPLPWAQSTGNQMSSRLMSMRSANGLLMLPPKTEQYVELHKGEVVDVMVIGRL		~10

— PMC12441120, “Gephyrin filaments represent the molecular basis of inhibitory postsynaptic densities” (Nature Communications, 2025)
